# Biological target: T1, ENaC (Homo sapiens, UniProt P37088+P51168+P51170)
# T1 construct: primary cultures of human bronchial epithelial cells (HBEC) harvested from normal human lungs; endogenous in cells; host or cells: primary human bronchial epithelial cells (HBEC) from donor lungs, differentiated at an air-liquid interface
# T1 sequence (P37088 1-669): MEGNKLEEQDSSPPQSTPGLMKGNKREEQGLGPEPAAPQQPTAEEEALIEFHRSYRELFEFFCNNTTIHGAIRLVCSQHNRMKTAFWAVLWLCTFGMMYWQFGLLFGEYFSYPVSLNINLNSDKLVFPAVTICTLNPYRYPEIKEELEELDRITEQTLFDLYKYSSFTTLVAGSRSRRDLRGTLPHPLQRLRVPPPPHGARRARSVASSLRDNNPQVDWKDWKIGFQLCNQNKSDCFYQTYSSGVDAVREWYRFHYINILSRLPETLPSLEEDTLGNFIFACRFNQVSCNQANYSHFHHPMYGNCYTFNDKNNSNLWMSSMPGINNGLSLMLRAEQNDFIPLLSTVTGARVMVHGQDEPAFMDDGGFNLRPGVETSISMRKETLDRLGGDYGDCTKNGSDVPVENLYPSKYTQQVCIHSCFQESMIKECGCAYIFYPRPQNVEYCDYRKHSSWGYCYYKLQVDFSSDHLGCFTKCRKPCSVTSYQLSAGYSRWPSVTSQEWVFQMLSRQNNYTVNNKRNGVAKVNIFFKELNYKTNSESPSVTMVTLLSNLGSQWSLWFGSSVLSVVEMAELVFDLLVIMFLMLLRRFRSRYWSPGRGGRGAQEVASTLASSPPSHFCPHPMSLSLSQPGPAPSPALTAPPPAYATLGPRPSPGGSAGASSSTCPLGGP
# T1 sequence (P51168 1-640): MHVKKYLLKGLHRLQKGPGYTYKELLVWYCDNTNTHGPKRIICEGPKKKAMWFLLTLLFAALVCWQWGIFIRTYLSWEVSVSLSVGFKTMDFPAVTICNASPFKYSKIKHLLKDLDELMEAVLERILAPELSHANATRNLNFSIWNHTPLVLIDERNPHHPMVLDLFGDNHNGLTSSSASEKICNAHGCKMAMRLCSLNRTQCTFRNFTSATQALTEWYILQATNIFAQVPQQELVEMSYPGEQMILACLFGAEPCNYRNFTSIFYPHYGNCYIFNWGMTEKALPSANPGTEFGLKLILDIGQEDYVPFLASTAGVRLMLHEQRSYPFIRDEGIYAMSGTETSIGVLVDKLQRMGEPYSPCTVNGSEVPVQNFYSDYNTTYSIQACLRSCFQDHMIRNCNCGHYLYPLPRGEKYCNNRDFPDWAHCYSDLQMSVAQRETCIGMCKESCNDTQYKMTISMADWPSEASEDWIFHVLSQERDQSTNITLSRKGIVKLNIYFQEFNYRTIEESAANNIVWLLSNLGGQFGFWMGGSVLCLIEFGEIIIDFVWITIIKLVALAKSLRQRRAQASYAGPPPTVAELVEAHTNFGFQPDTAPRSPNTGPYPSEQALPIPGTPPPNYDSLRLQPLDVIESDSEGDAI
# T1 sequence (P51170 1-649): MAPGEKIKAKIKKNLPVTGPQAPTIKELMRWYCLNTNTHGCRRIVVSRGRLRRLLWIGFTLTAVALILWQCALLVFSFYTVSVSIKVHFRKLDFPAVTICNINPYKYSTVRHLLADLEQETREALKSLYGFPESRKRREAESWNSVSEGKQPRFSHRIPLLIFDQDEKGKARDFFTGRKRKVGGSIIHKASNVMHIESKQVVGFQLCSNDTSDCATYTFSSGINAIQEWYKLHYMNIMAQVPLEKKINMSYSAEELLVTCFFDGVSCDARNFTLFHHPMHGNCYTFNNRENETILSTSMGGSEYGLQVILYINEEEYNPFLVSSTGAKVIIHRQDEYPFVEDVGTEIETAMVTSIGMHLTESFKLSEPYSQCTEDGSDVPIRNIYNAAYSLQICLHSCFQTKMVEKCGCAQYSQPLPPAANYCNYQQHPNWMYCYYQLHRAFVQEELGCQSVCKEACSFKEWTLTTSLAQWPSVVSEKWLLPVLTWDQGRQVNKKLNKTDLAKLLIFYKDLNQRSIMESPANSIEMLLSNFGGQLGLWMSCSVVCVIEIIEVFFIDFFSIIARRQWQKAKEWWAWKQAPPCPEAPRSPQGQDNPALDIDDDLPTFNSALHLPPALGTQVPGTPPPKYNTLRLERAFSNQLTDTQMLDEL
# Experiment: ENaC current (benzamil-sensitive current) in IL-13-treated differentiated HBEC, Examples 1-2
# Assay type: cell-based
# Experimental: IL-13: abcam (#ab9577); Stock solution: 10 μg/mL water; 20 ng=2 μL Stock/mL media Media change with IL-13 every other day
# Experimental design: IL-13 treatment with 20 ng/mL media for 4 and 14 days. Ussing chamber experiment in Basic Ringer (5 mM glucose in basolateral side).
# In some embodiments, experimental studies called for determination of: • Baseline values (30 min) • Presence or absence of 6 μM Benzamil (on apical side) (15 min) • Presence or absence of 20 μM CFTRinh 172 (on apical and basolateral sides) (15 min) • Presence or absence 10 μM CaCCinh AO1 (on apical and basolateral sides) (10 min) • Presence or absence of 20 μM Bumetanide (on basolateral side) (15 min)
# For Day 0 analysis: • IL-13 treatment: 0 ng/mL media • Ussing chamber experiment in basic ringer or amino acid (AA) formulations. • In addition, S side added 5 mM Glucose
# Treatment for 4 days or 14 days analysis: • IL-13 treatment: 20 ng/mL media • Ussing chamber experiment in basic ringer or AA formulations. • In addition, S side added 5 mM Glucose
# In some embodiments, the day 4 and day 14 experimental studies called for determination of: • Baseline values (30 min) • Presence or absence of 6 μM Benzamil (on mucosal side) (15 min) • Presence or absence of 20 μM Bumetanide (on serosal side) (15 min) • Presence or absence of 20 μM CFTRinh 172 (on mucosal and serosal sides) (15 min) […]
substance,measurement,setting,value
IL-13: Th2 cytokine (Abcam) added to HBEC culture medium,ENaC current versus IL-13 concentration,FIG. 2,dose-dependent reduction
same,day of maximum reduction in ENaC current,IL-13 exposure (FIG. 3),8 days

# — patent US20230201151A1, “FORMULATIONS AND METHODS FOR TREATING ACUTE RESPIRATORY DISTRESS SYNDROME, ASTHMA, OR ALLERGIC RHINITIS” (UNIVERSITY OF FLORIDA RESEARCH FOUNDATION, INC., priority 2020, published 2023)
